The record followed here is US20130195836A1.

The test deals with human macrophage mannose receptor C type 1 (MRC1) (human) (UniProt P22897). The test is described as follows: flow cytometry on stable pool of MRC1-transfected HT1080 cells compared to untransfected HT1080 cells. On the technique in general: Flow cytometry measures light scatter and fluorescence of single cells or particles in a stream.
UniProt P22897, sequence (P22897 19-1456 limits assumed): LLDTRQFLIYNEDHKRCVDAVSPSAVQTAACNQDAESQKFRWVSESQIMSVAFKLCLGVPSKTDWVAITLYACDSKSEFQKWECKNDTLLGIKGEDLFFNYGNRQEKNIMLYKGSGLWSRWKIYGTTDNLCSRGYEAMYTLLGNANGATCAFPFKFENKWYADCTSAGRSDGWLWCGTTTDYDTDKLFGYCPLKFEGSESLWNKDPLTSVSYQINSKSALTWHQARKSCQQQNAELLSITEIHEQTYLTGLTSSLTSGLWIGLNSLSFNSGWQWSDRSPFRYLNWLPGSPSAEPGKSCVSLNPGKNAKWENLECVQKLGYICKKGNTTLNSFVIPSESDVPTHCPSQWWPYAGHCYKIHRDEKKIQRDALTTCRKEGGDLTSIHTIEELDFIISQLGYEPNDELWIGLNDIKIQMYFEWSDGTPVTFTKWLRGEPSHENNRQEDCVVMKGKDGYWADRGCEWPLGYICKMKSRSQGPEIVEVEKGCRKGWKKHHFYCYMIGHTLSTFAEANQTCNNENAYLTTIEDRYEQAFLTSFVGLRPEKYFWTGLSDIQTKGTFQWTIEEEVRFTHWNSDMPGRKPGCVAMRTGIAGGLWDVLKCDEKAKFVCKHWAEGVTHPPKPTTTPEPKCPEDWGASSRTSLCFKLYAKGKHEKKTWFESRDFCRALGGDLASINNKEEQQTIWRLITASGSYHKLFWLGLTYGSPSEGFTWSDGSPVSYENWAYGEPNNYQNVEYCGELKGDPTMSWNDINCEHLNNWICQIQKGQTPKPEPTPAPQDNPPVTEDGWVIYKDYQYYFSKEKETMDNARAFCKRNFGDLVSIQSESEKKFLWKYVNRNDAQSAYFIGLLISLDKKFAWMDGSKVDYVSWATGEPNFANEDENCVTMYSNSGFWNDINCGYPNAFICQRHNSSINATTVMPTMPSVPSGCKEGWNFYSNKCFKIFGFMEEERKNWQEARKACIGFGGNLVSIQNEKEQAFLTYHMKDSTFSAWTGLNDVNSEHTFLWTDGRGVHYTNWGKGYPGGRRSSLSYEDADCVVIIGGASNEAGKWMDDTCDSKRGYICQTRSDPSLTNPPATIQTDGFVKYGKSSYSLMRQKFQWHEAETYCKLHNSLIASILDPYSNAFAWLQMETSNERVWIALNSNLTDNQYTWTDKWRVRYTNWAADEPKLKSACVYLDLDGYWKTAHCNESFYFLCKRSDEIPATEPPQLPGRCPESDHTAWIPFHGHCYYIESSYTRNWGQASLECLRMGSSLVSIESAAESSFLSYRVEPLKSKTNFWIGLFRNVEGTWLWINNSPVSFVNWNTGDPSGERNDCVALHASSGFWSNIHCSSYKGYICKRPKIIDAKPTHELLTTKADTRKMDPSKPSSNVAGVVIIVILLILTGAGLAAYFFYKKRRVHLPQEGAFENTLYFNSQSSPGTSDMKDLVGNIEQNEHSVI

The substance “FITC conjugated Mouse anti-human MRC1 antibody (BD Biosciences Cat #551135)” gave a Relative Fluorescence Intensity (RFI) above the background of 1.5 logs.
